Results published in publication PMC1301591 (Nucleic Acids Research, 2005).

B1: GST–FEN-1 fusion protein containing human FEN-1 amino acids 328–380 (domain or fragment, UniProt P39748 328-380, looked up)
chain: LSKSRQGSTQGRLDDFFKVTGSLSSAKRKEPEPKGSTKKKAKTGAAGKFKRGK
B2: GST–FEN-1 fusion protein containing human FEN-1 amino acids 254–380 (domain or fragment, UniProt P39748 254-380, looked up)
chain: KSIEEIVRRLDPNKYPVPENWLHKEAHQLFLEPEVLDPESVELKWSEPNEEELIKFMCGEKQFSEERIRSGVKRLSKSRQGSTQGRLDDFFKVTGSLSSAKRKEPEPKGSTKKKAKTGAAGKFKRGK
B3: FEN-1ΔP (residues 337–344 are deleted) (enzyme, human, UniProt P39748 1-380, looked up)
chain: MGIQGLAKLIADVAPSAIRENDIKSYFGRKVAIDASMSIYQFLIAVRQGGDVLQNEEGETTSHLMGMFYRTIRMMENGIKPVYVFDGKPPQLKSGELAKRSERRAEAEKQLQQAQAAGAEQEVEKFTKRLVKVTKQHNDECKHLLSLMGIPYLDAPSEAEASCAALVKAGKVYAAATEDMDCLTFGSPVLMRHLTASEAKKLPIQEFHLSRILQELGLNQEQFVDLCILLGSDYCESIRGIGPKRAVDLIQKHKSIEEIVRRLDPNKYPVPENWLHKEAHQLFLEPEVLDPESVELKWSEPNEEELIKFMCGEKQFSEERIRSGVKRLSKSRQGSTKVTGSLSSAKRKEPEPKGSTKKKAKTGAAGKFKRGK

Assays:
[1] = target: Recombinant His-tagged BLM protein (human, UniProt P54132 1-1417); test: pull-down
Sequence of Recombinant His-tagged BLM protein (P54132 whole entry): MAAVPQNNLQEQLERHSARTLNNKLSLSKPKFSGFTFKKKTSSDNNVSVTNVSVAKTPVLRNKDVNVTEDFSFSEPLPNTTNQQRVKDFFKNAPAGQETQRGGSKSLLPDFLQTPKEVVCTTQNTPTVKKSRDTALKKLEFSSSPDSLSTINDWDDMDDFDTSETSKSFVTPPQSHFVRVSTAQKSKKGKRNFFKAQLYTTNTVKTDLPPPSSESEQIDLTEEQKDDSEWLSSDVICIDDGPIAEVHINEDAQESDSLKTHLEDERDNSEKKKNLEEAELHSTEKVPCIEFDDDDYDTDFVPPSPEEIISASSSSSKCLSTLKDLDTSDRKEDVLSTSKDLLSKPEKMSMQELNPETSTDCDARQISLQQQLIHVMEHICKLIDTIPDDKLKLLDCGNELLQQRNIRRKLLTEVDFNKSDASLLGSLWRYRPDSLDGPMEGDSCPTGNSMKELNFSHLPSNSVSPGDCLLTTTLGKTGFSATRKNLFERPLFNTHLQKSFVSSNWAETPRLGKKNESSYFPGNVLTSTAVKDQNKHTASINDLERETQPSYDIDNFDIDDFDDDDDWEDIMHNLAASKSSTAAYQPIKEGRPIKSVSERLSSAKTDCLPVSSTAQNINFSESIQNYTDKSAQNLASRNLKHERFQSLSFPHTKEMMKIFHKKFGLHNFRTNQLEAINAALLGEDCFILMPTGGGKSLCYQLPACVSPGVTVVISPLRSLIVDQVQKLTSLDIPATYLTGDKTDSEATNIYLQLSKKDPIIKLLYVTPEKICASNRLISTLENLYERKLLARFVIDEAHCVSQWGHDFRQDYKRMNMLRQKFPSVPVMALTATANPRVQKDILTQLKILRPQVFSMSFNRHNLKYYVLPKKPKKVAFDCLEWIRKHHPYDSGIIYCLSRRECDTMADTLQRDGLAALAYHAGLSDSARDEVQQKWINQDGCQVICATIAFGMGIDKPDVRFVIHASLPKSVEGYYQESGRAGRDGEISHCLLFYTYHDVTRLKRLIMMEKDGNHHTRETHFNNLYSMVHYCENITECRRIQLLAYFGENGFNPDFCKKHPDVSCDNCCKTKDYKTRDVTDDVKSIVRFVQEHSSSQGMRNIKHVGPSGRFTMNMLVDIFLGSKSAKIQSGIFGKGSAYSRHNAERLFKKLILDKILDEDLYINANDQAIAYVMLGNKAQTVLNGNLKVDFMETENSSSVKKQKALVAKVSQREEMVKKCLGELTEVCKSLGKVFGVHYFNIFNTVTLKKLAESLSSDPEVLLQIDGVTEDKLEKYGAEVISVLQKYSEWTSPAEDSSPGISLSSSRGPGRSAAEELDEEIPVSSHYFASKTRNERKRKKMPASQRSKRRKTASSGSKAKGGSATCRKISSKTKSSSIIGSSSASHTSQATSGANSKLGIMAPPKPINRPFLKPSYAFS

[2] = target: T1, Recombinant His-tagged WRN protein (human, UniProt Q14191 1-1432); test: pull-down
T1 sequence (Q14191 whole entry): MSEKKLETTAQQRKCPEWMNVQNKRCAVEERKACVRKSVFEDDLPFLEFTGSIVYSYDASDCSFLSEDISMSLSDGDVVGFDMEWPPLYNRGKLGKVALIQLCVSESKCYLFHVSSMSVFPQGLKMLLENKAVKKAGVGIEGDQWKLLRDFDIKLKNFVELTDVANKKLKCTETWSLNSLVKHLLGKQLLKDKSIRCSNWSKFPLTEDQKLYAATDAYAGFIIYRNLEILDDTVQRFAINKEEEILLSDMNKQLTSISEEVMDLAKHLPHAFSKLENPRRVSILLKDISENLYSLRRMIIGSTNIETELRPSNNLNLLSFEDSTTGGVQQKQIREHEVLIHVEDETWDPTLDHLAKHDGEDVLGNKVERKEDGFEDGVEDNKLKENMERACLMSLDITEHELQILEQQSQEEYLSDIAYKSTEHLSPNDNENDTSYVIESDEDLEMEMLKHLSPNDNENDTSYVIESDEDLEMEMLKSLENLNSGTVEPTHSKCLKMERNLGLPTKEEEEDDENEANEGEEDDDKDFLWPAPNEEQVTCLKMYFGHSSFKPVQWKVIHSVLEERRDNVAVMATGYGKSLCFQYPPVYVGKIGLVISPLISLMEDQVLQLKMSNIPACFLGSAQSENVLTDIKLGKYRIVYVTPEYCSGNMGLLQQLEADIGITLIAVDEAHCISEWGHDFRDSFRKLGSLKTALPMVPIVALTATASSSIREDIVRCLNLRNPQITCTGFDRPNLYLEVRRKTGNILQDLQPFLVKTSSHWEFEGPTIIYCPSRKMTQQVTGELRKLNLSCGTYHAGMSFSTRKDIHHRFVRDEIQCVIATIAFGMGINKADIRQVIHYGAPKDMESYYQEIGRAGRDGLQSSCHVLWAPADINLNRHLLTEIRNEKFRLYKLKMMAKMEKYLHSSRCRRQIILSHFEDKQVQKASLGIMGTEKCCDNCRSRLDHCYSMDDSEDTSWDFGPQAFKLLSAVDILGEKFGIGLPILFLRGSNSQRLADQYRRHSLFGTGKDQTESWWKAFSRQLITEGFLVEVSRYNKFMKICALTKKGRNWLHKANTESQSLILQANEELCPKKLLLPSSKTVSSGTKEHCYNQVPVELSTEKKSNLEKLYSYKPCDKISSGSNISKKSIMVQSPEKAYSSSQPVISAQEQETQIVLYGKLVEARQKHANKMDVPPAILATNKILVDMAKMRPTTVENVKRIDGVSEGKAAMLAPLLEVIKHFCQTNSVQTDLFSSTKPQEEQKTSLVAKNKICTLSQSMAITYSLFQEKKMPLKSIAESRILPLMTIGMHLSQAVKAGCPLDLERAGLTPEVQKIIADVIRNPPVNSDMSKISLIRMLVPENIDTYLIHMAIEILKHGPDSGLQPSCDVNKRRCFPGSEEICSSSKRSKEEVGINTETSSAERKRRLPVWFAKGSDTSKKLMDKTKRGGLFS

[3] = target: T1, Recombinant His-tagged WRN protein; test: ELISA

Binder | binding result [1] | binding result [2] | binding result [3]
B1 | binds | binds | –
B2 | binds | binds | –
STKKKAKTGAAGKFKRGK (domain or fragment, UniProt P39748 363-380, looked up) [GST–FEN-1 fusion protein containing human FEN-1 amino acids 363–380] | binds | binds | –
B3 | – | – | binds
